The target in experiment [1] is T1, full length human XRCC4 protein (recombinant, E. coli) (human), Q13426. Description: absorbance spectra, 1 µM beacon, 40 µM protein; beacon only 0.40 (FIG. 7).
Experiment [2] addresses truncated XRCC4 protein that does not have DNA ligase IV binding site (recombinant, E. coli) (human), Q13426. The experiment is described as above.
Experiment [3] has as its target T1, full length human XRCC4 protein …. Briefly: fluorescence of 2 µM beacon with increasing concentration of XRCC4 (FIG. 8).
Experiment [4] concerns the target T2, E3 peptide.
T2 chain: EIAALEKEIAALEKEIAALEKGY
Briefly: fluorescence titration of 1 µM beacon with E3 peptide, curve fitting.

The target in experiment [5] is unlabeled JunLZ-Lb1b4 [MBP: P0AEX9]. Description: fluorescence at 580 nm, 100 nM beacon, 10 µM partner (FIG. 14A, column B).
Experiment [6] concerns the target T2, E3 peptide. Briefly: fluorescence titration of 10 nM beacon with E3 peptide, curve fitting.
Experiment [7] has as its target unlabeled GCN4 244 (yeast). Briefly: fluorescence at 580 nm, 100 nM beacon, 10 µM partner (FIG. 14A, column D).
Experiment [8] has as its target T2, E3 peptide. Briefly: fluorescence at 580 nm, 100 nM beacon, 10 µM partner (FIG. 14A, column E).
The target of experiment [9] is T2, E3 peptide. Description: Kd of the beacon (fluorescence) compared with Kd of unlabeled K3-b1b3 (CD), both for E3.
Experiment [10] has as its target T2, E3 peptide. Description: fluorescence titration of 1 µM beacon with E3 peptide.
Experiment [11] has as its target FosLZ (MBP-FosLZ, fusion protein of MBP and the cFos leucine zipper) [MBP: P0AEX9]. Briefly: fluorescence at 580 nm, 100 nM beacon, 10 µM partner (FIG. 14A, column C).
The target in experiment [12] is T2, E3 peptide. Briefly: CD spectra analysis, curve fitting (data not shown).

Usually Kd stands for a measure of binding affinity in units of concentration. Low readings indicate higher affinity, high ones lower affinity.

T1 sequence (Q13426 whole entry, the tested form may be a part): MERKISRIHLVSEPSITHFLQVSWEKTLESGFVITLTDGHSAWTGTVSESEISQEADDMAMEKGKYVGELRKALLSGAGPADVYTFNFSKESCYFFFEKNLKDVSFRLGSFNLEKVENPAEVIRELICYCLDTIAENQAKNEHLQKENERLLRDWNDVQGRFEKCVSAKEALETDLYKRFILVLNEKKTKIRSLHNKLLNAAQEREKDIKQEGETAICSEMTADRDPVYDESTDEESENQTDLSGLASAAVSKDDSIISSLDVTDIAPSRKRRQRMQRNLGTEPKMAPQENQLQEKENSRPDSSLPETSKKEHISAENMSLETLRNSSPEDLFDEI
Sequence of truncated XRCC4 protein that does not have DNA ligase IV binding site (recombinant, E. coli) (human), Q13426 (Q13426 2-150 limits assumed): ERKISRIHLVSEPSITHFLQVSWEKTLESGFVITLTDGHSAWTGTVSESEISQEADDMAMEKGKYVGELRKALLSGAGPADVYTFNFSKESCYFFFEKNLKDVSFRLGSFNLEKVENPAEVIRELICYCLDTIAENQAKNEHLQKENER

B1: LigIV-C1 peptide beacon (peptide)
peptide: CREYDSYGDSYFIDTDLNQLKEVFSGIKCG
modifications: not checked
As for B1, the values for the A550/A520 ratio in experiment [1] and in [2] were 0.46 and 0.38, respectively. Moreover, the fluorescence enhancement in experiment [3] came to 9.5 fold.

B2: K3-b1b3 beacon (peptide)
peptide: KICALKAKIAALKAKICALKAGY
modifications: not checked
In the case of B2, the dissociation constant Kd with E3 peptide [4] is 766 nM; in the experiment with E3 peptide [6] it was 738 nM. For the same molecule, the fluorescence enhancement over beacon only in experiment [5] was determined as 1.5 fold; in experiment [7], 1.2 fold; with E3 peptide [8], 7 fold; in [11], 1.6 fold. Also, in the experiment with E3 peptide [9], the fold decrease of binding affinity against unlabeled K3-b1b3 was determined as 17 fold. Further, the maximum fluorescence enhancement in the experiment with E3 peptide [10] amounted to 12 fold.

B3: K3-b1b3 peptide (unlabeled) (peptide)
peptide: KICALKAKIAALKAKICALKAGY
modifications: not checked
For the molecule B3, the Kd in the experiment with E3 peptide [12] came to 45 nM. That is a double-digit nanomolar value.

These data come from patent US20140328762A1, “Fluorogenic Peptide Probes and Assays” (priority 2011, published 2014).
